Laboratory results published in IntAct's records for PubMed 27852061.

B1: Forkhead box protein E1 (Homo sapiens), O00358 (parent)
chain: MTAESGPPPPQPEVLATVKEERGETAAGAGVPGEATGRGAGGRRRKRPLQRGKPPYSYIALIAMAIAHAPERRLTLGGIYKFITERFPFYRDNPKKWQNSIRHNLTLNDCFLKIPREAGRPGKGNYWALDPNAEDMFESGSFLRRRKRFKRSDLSTYPAYMHDAAAAAAAAAAAAAAAAIFPGAVPAARPPYPGAVYAGYAPPSLAAPPPVYYPAASPGPCRVFGLVPERPLSPELGPAPSGPGGSCAFASAGAPATTTGYQPAGCTGARPANPSAYAAAYAGPDGAYPQGAGSAIFAAAGRLAGPASPPAGGSSGGVETTVDFYGRTSPGQFGALGACYNPGGQLGGASAGAYHARHAAAYPGGIDRFVSAM
partner: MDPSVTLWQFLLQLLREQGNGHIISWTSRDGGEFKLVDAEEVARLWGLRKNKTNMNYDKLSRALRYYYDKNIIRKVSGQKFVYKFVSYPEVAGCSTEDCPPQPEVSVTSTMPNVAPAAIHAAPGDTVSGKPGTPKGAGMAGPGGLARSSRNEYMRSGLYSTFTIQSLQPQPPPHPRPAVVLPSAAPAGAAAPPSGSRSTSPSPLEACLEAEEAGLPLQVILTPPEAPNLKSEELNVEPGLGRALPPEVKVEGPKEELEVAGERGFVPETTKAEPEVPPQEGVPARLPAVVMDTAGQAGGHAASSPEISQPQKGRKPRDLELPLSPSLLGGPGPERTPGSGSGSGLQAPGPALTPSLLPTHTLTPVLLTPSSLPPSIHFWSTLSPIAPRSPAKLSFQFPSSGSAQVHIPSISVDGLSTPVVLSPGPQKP

Variants of: B1
Conditions: with elk1_human ELK1, P19419

| Variant | effect of a mutation on the interaction |
| --- | --- |
| A65V | with no effect |
